Laboratory results taken from article PMC3093450.
pKd: −log10 of the molar value.

Biological target: GST-Sec23p (yeast) (UniProt P15303)
Assay: pull-down

GST-Sec23p (yeast), sequence (P15303 2-768): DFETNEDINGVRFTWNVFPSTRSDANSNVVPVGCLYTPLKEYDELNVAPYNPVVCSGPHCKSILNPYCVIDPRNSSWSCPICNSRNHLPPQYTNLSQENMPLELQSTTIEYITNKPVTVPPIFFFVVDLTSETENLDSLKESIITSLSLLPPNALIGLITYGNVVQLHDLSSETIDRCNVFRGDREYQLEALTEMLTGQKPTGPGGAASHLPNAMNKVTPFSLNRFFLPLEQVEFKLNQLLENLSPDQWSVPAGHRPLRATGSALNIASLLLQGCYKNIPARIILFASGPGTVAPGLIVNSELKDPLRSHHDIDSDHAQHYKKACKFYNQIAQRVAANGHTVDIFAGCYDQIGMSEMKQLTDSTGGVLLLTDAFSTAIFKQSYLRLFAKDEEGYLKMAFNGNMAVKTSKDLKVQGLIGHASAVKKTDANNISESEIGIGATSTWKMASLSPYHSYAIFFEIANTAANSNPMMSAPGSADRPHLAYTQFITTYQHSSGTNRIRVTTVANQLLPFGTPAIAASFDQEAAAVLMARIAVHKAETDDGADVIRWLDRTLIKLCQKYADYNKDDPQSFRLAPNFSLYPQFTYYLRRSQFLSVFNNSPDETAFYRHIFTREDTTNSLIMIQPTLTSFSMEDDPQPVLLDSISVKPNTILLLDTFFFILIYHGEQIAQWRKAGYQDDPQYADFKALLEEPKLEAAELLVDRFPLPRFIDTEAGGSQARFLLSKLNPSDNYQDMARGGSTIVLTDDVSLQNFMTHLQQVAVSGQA

pKd: 6.20
Substance: TRAPPI complex (from UniProt P36149 1-193)
